The text below walks through data of patent US20190048071A1 (MorphoSys, published 2019).

Where a chain is given by its changes, count along the chain named. Where two headings read alike, the source gives them in different places.

For test [1], the target named is T1, Human IL-17C (human, UniProt Q9P0M4 19-197, biotinylated in the receptor inhibition assay (ECL biotinylation module)).
T1 construct: Recombinant protein, purchased or made in-house (Novus #NBP1-42910 in the cell assays); also called hIL-17C; interleukin 17C
T1 sequence: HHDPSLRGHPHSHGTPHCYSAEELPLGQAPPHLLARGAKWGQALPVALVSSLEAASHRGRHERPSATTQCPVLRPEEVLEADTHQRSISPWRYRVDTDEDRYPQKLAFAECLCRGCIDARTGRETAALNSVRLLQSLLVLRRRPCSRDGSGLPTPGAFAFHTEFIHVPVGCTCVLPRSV
As to the kind of experiment: MSD receptor inhibition assay, IgG format: IgG pre-incubated with biotinylated human IL-17C, binding to coated mouse IL17RE/Fc. The method, then: (§1) Purified IL-17C specific Fabs or IgGs, respectively were tested for its capacity to inhibit the binding of IL-17C to its specific receptor IL-17RE. Therefore MA6000 384-well plates (Meso Scale Discovery, MSD) were coated with 30 μl of mouse IL17RE/Fc chimeric protein at 75 ng/ml in PBS at 4° C. overnight. The next day a serial antibody dilution (concentrations from 0.001 to 100 nM) were pre-incubated for 30 min at RT with an equal volume of biotinylated human/cynomolgus or mouse IL-17C to determine an IC₅₀ concentration for receptor binding inhibition. After blocking of plates for 1 h with 2.5% BSA in PBST, previously formed antibody-ligand complexes were added for 1 h to coated IL17RE/Fc and receptor binding was detected via Streptavidin-ECL using MSD Sector Imager.
(§2) Results are shown in rows 3 and 4 in Table 2 and Table 3 respectively.

The target of test [2] is T2, Cynomolgus monkey IL-17C (cynomolgus monkey, UniProt Q9P0M4 19-197 (human entry), limits assumed, biotinylated in the receptor inhibition assay (ECL biotinylation module)).
T2 chain: T1 sequence with H2Q, S5F, S12T, H17R, S56G, G59R, E62D, T67A, A119P, H166R
As to the kind of experiment: cell-based or functional assay.

Test [3] concerns the target T3, Mouse IL-17C (mouse, UniProt Q8K4C5 17-194, biotinylated in the receptor inhibition assay (ECL biotinylation module)).
T3 sequence: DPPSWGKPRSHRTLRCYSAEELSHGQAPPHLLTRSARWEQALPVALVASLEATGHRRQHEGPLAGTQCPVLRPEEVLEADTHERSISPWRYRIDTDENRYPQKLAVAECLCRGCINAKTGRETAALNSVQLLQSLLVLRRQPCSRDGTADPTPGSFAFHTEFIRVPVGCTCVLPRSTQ
As to the kind of experiment: cell-based or functional assay.

The target in test [4] is T1, Human IL-17C. Briefly: cell-based or functional assay.
Test [5] concerns the target T3, Mouse IL-17C. Briefly: SET (solution equilibrium titration, ECL based), apparent affinity, bivalent IgG. The text has this:
(§3) Solution equilibrium titration (SET) was basically performed as described in the literature (Friquet et al., (1985) J. Immunol. Meth. 77: 305-19). In order to improve the sensitivity and accuracy of the SET method, it was transferred from classical ELISA to ECL based technology (Haenel et al. (2005) Anal Biochem. 339.1: 182-84).

Test [6] concerns the target T1, Human IL-17C. The description is as above.
From the text: as §3

Test [7] has as its target T2, Cynomolgus monkey IL-17C. As to the kind of experiment: MSD receptor inhibition assay, IgG format: IgG pre-incubated with biotinylated cynomolgus IL-17C, binding to coated mouse IL17RE/Fc. On the procedure:
as §1, §2

Test [8] concerns the target T3, Mouse IL-17C. Briefly: MSD receptor inhibition assay, IgG format: IgG pre-incubated with biotinylated mouse IL-17C, binding to coated mouse IL17RE/Fc. On the procedure:
as §1, §2

Test [9] deals with T1, Human IL-17C. As to the kind of experiment: MSD receptor inhibition assay, Fab format: Fab pre-incubated with biotinylated human IL-17C, binding to coated mouse IL17RE/Fc. On the procedure: as §1, §2
For test [10], the target named is T2, Cynomolgus monkey IL-17C. Briefly: MSD receptor inhibition assay, Fab format: Fab pre-incubated with biotinylated cynomolgus IL-17C, binding to coated mouse IL17RE/Fc. On the procedure:
as §1

The target of test [11] is T2, Cynomolgus monkey IL-17C. As to the kind of experiment: SET (solution equilibrium titration, ECL based), monovalent affinity, Fab.
From the text: as §3

In test [12] the target is T3, Mouse IL-17C. The test is described as above.
From the text: as §3

The target of test [13] is T1, Human IL-17C. Described as above.
From the text: as §3

The target in test [14] is T3, Mouse IL-17C. As to the kind of experiment: MSD receptor inhibition assay, Fab format: Fab pre-incubated with biotinylated mouse IL-17C, binding to coated mouse IL17RE/Fc. The method, then: as §1
Test [15] concerns the target T2, Cynomolgus monkey IL-17C. Briefly: SET (solution equilibrium titration, ECL based), apparent affinity, bivalent IgG.
From the text: as §3

Test [16] addresses T2, Cynomolgus monkey IL-17C. As to the kind of experiment: cell-based or functional assay.
The target in test [17] is T3, Mouse IL-17C. As to the kind of experiment: cell-based or functional assay. This is another data set of the same source.
Test [18] addresses T1, Human IL-17C. Briefly: cell-based or functional assay. This is another data set of the same source.
Test [19] has as its target T2, Cynomolgus monkey IL-17C. As to the kind of experiment: MSD receptor inhibition assay, Fab format: Fab pre-incubated with biotinylated cynomolgus IL-17C, binding to coated mouse IL17RE/Fc. The method, then: as §1, §2

B1: MAB#2 IgG1 (antibody, V domains shown)
VH: QVQLVESGGGLVKPGGSLRLSCAASGFTFSDHYISWIRQAPGKGLEWVSYISSSGSTTYYAESVKGRFTISRDNAKNSLYLQMNSLRAEDTAVYYCARQSYYFLPYFDVWGQGTLVTVSS
VL: QSALTQPASVSGSPGQSITISCTGTSSDVGSYNLVSWYQQHPGKAPKLMIYEGSKRPSGVSNRFSGSKSGNTASLTISGLQAEDEADYYCASRGSRRVLYVFGGGTKLTVLG
notes: Human IgG1 with lambda light chain from the Ylanthia library
On to B1, for which the results for the IC50 in test [1], in test [7] and in test [8] were 0.058 nM, 0.057 nM and 0.048 nM, respectively. Moreover, the figures for the “NF-κB reporter assay (IC50)” value in [2], in test [3] and in test [4] were 0.0129 nM, 0.0648 nM and 0.0185 nM, respectively. Also, the “Keratinocyte assay (IC50; CSF3 gene expression in mouse primary keratinocytes)” value in [3] turned out to be 0.051 nM. In addition, in test [4], the “Keratinocyte assay (IC50; DEFB4A gene expression in primary human keratinocytes stimulated with hIL-17C and TNFα)” value worked out at 0.28 nM. In addition, the EC50 (as a rule, the concentration that produces a half-maximal response) in test [5] was 0.323 nM; in test [6] it was 0.016 nM.

B2: MAB#2 Fab (Fab, V domains shown)
VH: B1 VH
VL: B1 VL
notes: Purified monovalent Fab; also called MAB#2 (Fab format)
As for B2, the figures for the IC50 in [9], in [10] and in test [14] were 0.076 nM, 0.05 nM and 0.15 nM, respectively. The figures for the Kd in [11], in [12] and in [13] were 0.063 nM, 0.46 nM and 0.037 nM, respectively.

B3: MAB#1 IgG1 (antibody, V domains shown)
VH: EVQLLESGGGLVQPGGSLRLSCAASGFTVSDYAMHWVRQAPGKGLEWVSYIGGVGEGTQYAESVKGRFTISRDNSKNTLYLQMNSLRAEDTAVYYCARGFAIRYYGFDYWGQGTLVTVSS
VL: SYELTQPPSVSVSPGQTASITCSGDKLGDKYAYWYQQKPGQSPVLVIYQDSKRPSGIPERFSGSNSGNTATLTISGTQAEDEADYYCQVFTFPLVTTVFGGGTKLTVLG
notes: as for B1
B3: the figures for the IC50 in test [1], in [7] and in test [8] were 0.059 nM, 0.044 nM and 0.055 nM, respectively. The results for the 50% effective concentration (EC50) in [15], in test [5] and in [6] were 0.257 nM, 0.387 nM and 0.019 nM, respectively. For the same molecule, the “NF-κB reporter assay (IC50)” value in [16] is 0.0128 nM; in test [17], 0.0476 nM; in test [18], 0.0313 nM. For the same molecule, the “Keratinocyte assay (IC50; CSF3 gene expression in mouse primary keratinocytes)” value in test [17] stood at 0.112 nM. Besides, in test [18], the “Keratinocyte assay (IC50; DEFB4A gene expression in primary human keratinocytes stimulated with hIL-17C and TNFα)” value amounted to 0.319 nM.

B4: MAB#1 Fab (Fab, V domains shown)
VH: B3 VH
VL: B3 VL
notes: Purified monovalent Fab; also called MAB#1 (Fab format)
Take B4: the IC50 (in general, the concentration that gives 50% inhibition) was found to be 2.7 nM in [19], 2.9 nM in [9] and 6 nM in [14]. Also, the Kd (commonly the concentration at which binding is half-saturated) in test [11] amounted to 22 nM; in test [12] it was 28 nM; in test [13] it was 3.95 nM.
